Source: patent publication US5719041

What was measured:
[1] = molecular target: Bovine chymotrypsin (bovine) (UniProt P00766)
Bovine trypsin (bovine) = Bovine trypsin (bovine) (UniProt P00760)
[2] = molecular target: Human Factor XIIa (human) (UniProt P00748)
Human Factor XIa (human) = Human Factor XIa (human) (UniProt P03951)
Human Factor Xa (human) [3] = molecular target: Human Factor Xa (human) (UniProt P00742)
[4] = molecular target: Human activated protein C (human) (UniProt P04070)
[5] = molecular target: Human leukocyte elastase (human) (UniProt P08246)
[6] = molecular target: Human plasma kallikrein (human) (UniProt P03952)
Human plasmin (human) = Human plasmin (human) (UniProt P00747)
Human thrombin (human) = Human thrombin (human) (UniProt P00734)
[7] = molecular target: Single chain tissue plasminogen activator (human) (UniProt P00750)
[8] = molecular target: Tissue factor·Factor VIIa complex (human Factor VIIa with recombinant human TF1-243) (human) (UniProt P08709)
[9] = molecular target: Human Factor XIIa (human) (UniProt P00748); remark: listed apart in the source
Human Factor Xa (human) [10] = molecular target: Human Factor Xa (human) (UniProt P00742); remark: listed apart in the source
[11] = molecular target: Human plasma kallikrein (human) (UniProt P03952); remark: listed apart in the source
[12] = molecular target: T1, MeOSuc-Ala-Ala-Pro-Val-MCA
T1 sequence (peptide, N-terminal MeOSuc; C-terminal MCA): AAPV

Sequence of Human leukocyte elastase (P08246 30-247 limits assumed): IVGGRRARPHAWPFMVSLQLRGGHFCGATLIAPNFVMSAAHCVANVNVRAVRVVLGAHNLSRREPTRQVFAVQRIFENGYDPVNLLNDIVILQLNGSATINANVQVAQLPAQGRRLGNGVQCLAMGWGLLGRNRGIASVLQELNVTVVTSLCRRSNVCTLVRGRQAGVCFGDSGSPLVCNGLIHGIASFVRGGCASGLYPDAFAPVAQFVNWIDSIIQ

Substance	Percent Activity of protease with 100 nM inhibitor [1] [%]	Percent Activity of protease with 100 nM inhibitor (Bovine trypsin (bovine)) [%]	Percent Activity of protease with 100 nM inhibitor [2] [%]	Percent Activity of protease with 100 nM inhibitor (Human Factor XIa (human)) [%]	Percent Activity of protease with 100 nM inhibitor (Human Factor Xa (human) [3]) [%]	Percent Activity of protease with 100 nM inhibitor [4] [%]	Percent Activity of protease with 100 nM inhibitor [5] [%]	Percent Activity of protease with 100 nM inhibitor [6] [%]	Percent Activity of protease with 100 nM inhibitor (Human plasmin (human)) [%]	Percent Activity of protease with 100 nM inhibitor (Human thrombin (human)) [%]	Percent Activity of protease with 100 nM inhibitor [7] [%]	Percent Activity of protease with 100 nM inhibitor [8] [%]	concentration giving 10-fold prolongation of clotting time, APTT assay in normal human plasma [9] [µM]	concentration giving 10-fold prolongation of clotting time, PT assay in normal human plasma (Human Factor Xa (human) [10]) [µM]	concentration giving 10-fold prolongation of clotting time, APTT assay in normal human plasma [11] [µM]	Km of the substrate with HLE [12] [µM]
Ecotin (recombinant wild type, E. coli periplasmic protein, 142 amino acid residues) (from UniProt P23827)	0	0	0	79	0	99	0	0	100	98	100	99	0.3	2	0.3	
Ecotin M84R mutant (from UniProt P23827)	0	0	1	5	1	50	88	1	10	4	100	87				
Ecotin M84K mutant (from UniProt P23827)	1	0	0	12	2	65	85	2	9	16	100	92				
Human leukocyte elastase (from UniProt P08246) (enzyme)																150
